Results as given in patent publication US20220119518A1 (KUMHO HT, published 2022).

T1: CD66c (Cluster of Differentiation 66c) on cells (UniProt P40199 35-320, limits assumed)
T1 construct: whole, on cells; also called CEACAM6; CEACAM 6
T1 sequence (looked up): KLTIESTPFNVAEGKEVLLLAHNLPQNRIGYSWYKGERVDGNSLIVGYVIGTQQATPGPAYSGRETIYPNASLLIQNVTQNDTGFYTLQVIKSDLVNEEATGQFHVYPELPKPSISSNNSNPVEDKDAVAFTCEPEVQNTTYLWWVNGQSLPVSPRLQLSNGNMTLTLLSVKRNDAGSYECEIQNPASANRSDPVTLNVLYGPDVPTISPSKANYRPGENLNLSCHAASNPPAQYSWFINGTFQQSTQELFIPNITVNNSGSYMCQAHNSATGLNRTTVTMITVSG

T2: Antigen CD66c (CEACAM6; Sino Biological, Inc.) (UniProt P40199 35-320)
T2 construct: Bought antigen, coated on the ELISA plate; construct not described; also called CECACAM6 (CD66c) antigen; CD66c antigen
T2 sequence (looked up): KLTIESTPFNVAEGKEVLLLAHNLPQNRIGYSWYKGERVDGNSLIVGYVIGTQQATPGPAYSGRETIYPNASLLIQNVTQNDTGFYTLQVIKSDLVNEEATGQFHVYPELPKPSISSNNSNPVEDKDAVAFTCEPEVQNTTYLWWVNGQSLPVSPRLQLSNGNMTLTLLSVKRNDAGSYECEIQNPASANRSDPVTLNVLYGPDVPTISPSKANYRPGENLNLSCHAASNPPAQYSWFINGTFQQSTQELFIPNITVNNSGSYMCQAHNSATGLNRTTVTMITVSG


Tests used:
[1] = target: T1, CD66c (Cluster of Differentiation 66c) …; assay: flow cytometry on CD66c-positive A549 cells, FITC anti-human IgG
Method: Each expressed 96 recombinant humanized antibody was poured and reacted in a test tube containing the same amount […] of CD66c-positive A549 non-small-cell lung cancer cell line at 4° C. for 30 minutes, washed with PBS, and treated with FITC-conjugated goat anti-Huma IgG (DiNona Inc, Korea) was added and incubated at 4° C. for 15 minutes. After washing with PBS, the cells were analyzed with a flow cytometer (Stratedigm, S1000EXi) and the results are shown below.
Among the 96 recombinant humanized antibody candidates, eight were firstly selected based on the degree of expression, the presence of aggregation, and the degree of cell binding (Table 9 and Table 10, FIGS. 3A to 3E).

[2] = target: T2, Antigen CD66c (CEACAM6; Sino …); assay: ELISA, CEACAM6 coated 100 ng/well, antibody at 1.52 ng/ml
Method: (§1) Antigen CD66c (CEACAM6; Sino Biological, Inc.) and CEACAM1 antigen (Sino Biological, Inc.) were coated on a 96-well plate at a rate of 100 ng per well and then blocked. The primary antibody was diluted 3-fold from 10 ug/ml and bound at 37° C. for 1 hour. […] goat anti-Human Ig-HRP conjugate (Jackson ImmunoResearch) as a secondary antibody was diluted 1:10,000 and incubated at 37° C. for 30 minutes. The washing was carried out at three times between each step, and the TMB reaction was performed, stopped with 1N H₂SO₄ solution at the same amount of TMB solution (100 ul) and then OD value was measured at 450 nm.
(§2) As a result of the experiment, the binding affinities to CD66c antigen of the five kinds of recombinant humanized antibodies selected from among 96 kinds of recombinant humanized antibodies are shown in FIG. 4a, Table 12, FIG. 4b and Table 13. FIG. 4a and Table 12 show the binding capacity of the antibodies to CECACAM6 CD66c) antigen, and FIG. 4b and Table 13 are the results for the CEACAM1 (CD66a) antigen.

[3] = target: T2, Antigen CD66c (CEACAM6; Sino …); assay: ELISA, CEACAM6 coated 100 ng/well, antibody at 4.57 ng/ml
Method: as §1, §2

[4] = target: T2, Antigen CD66c (CEACAM6; Sino …); assay: ELISA, CEACAM6 coated 100 ng/well, antibody at 3333.33 ng/ml
Method: as §1, §2

[5] = target: T2, Antigen CD66c (CEACAM6; Sino …); assay: ELISA, CEACAM6 coated 100 ng/well, antibody at 41.15 ng/ml
Method: as §1

[6] = target: T2, Antigen CD66c (CEACAM6; Sino …); assay: ELISA, CEACAM6 coated 100 ng/well, antibody at 10000.00 ng/ml
Method: as §1, §2

[7] = target: T2, Antigen CD66c (CEACAM6; Sino …); assay: ELISA, CEACAM6 coated 100 ng/well, antibody at 0.17 ng/ml
Method: as §1, §2

[8] = target: T2, Antigen CD66c (CEACAM6; Sino …); assay: ELISA, CEACAM6 coated 100 ng/well, antibody at 0.51 ng/ml
Method: as §1, §2

[9] = target: T2, Antigen CD66c (CEACAM6; Sino …); assay: ELISA, CEACAM6 coated 100 ng/well, antibody at 370.37 ng/ml
Method: as §1, §2

[10] = target: T2, Antigen CD66c (CEACAM6; Sino …); assay: ELISA, CEACAM6 coated 100 ng/well, antibody at 13.72 ng/ml
Method: as §1, §2

[11] = target: T2, Antigen CD66c (CEACAM6; Sino …); assay: ELISA, CEACAM6 coated 100 ng/well, antibody at 123.46 ng/ml
Method: as §1, §2

[12] = target: T2, Antigen CD66c (CEACAM6; Sino …); assay: ELISA, CEACAM6 coated 100 ng/well, antibody at 1111.11 ng/ml
Method: as §1, §2

| Binder | % (% gated × mean), against the chimeric antibody [1] | % gated [1] | Mean (fluorescence) [1] | OD 450 nm [2] | OD 450 nm [3] | OD 450 nm [4] | OD 450 nm [5] | OD 450 nm [6] | OD 450 nm [7] | OD 450 nm [8] | OD 450 nm [9] | OD 450 nm [10] | OD 450 nm [11] | OD 450 nm [12] |
| --- | --- | --- | --- | --- | --- | --- | --- | --- | --- | --- | --- | --- | --- | --- |
| recombinant humanized anti-CD66c antibody Protein ID 3004 (Vk7 + VH5) (antibody, human IgG1, V domains shown, also called #41) VH: QVQLVQSGAEVKKPGASVKISCKASGYSFTDYTMNWVRQAHGQNLEWIGLINPFHGGTVSNQRFKVKATLTVDVSTNTAYMELSRLRSDDTAVYYCVRGDPVRHYYALAYWGQGTLVTVSS VL: DIQMTQSPSTLSASVGDRVTITCGASENVYGTLNWYQRKPGKAPKLLIYGATNLADGVPSRFSGSGSGTEYTLTISSLQPDDFATYYCQNVLSAPYTFGGGTKLEIK | 85% | 71% | 541 | – | – | – | – | – | – | – | – | – | – | – |
| recombinant humanized anti-CD66c antibody Protein ID 3010 (Vk7 + VH7) (antibody, human IgG1, V domains shown, also called #45) VH: QVQLVQSGAEVKKPGASMKISCKASGYSFTDYTMNWVRQAPGQGLEWIGLINPFHGGTVSNQRFKVKATLTVDVSTNTAYMELSRLRSDDTAVYYCVRGDPVRHYYALAYWGQGTLVTVSS VL: DIQMTQSPSTLSASVGDRVTITCGASENVYGTLNWYQRKPGKAPKLLIYGATNLADGVPSRFSGSGSGTEYTLTISSLQPDDFATYYCQNVLSAPYTFGGGTKLEIK | 85.8% | 70% | 554 | – | – | – | – | – | – | – | – | – | – | – |
| recombinant humanized anti-CD66c antibody Protein ID 3019 (Vk7 + VH10) (antibody, human IgG1, V domains shown, also called hu 3019; #51) VH: QVQLVQSGAEVKKPGASVKVSCKASGYSFTDYTMNWVKQAPGQNLEWIGLINPFHGGTVSNQRFKVKATMTVDVSTNTAYMELSRLRSDDTAVYYCVRGDPVRHYYALAYWGQGTLVTVSS VL: DIQMTQSPSTLSASVGDRVTITCGASENVYGTLNWYQRKPGKAPKLLIYGATNLADGVPSRFSGSGSGTEYTLTISSLQPDDFATYYCQNVLSAPYTFGGGTKLEIK | 86.9% | 70% | 561 | 0.95 OD 450 nm | 1.32 OD 450 nm | 3.26 OD 450 nm | 2.45 OD 450 nm | 3.13 OD 450 nm | 0.68 OD 450 nm | 0.8 OD 450 nm | 3.23 OD 450 nm | 1.77 OD 450 nm | 3.04 OD 450 nm | 3.34 OD 450 nm |
| recombinant humanized anti-CD66c antibody Protein ID 3046 (Vk8 + VH7) (antibody, human IgG1, V domains shown, also called #74) VH: QVQLVQSGAEVKKPGASMKISCKASGYSFTDYTMNWVRQAPGQGLEWIGLINPFHGGTVSNQRFKVKATLTVDVSTNTAYMELSRLRSDDTAVYYCVRGDPVRHYYALAYWGQGTLVTVSS VL: DIQMTQSPSTLSASVGDRVTITCRASENVYGTLNWYQRKPGKAPKLLIYGATNLADGMPSRFSGSGSGTEYTLTISSLQPDDFATYYCQNVLSAPYTFGGGTKLEIK | 82.2% | 71% | 523 | – | – | – | – | – | – | – | – | – | – | – |
